Patent US20210238276A1 (INTEGRAL MOLECULAR, published 2021)

How the values were obtained:
Assay in all cases: flow cytometry, alanine-scan library in HEK-293T, with cytochalasin B
[1] = molecular target: T1, hsGLUT4 L247A (human, UniProt P14672 1-509)
T1 sequence: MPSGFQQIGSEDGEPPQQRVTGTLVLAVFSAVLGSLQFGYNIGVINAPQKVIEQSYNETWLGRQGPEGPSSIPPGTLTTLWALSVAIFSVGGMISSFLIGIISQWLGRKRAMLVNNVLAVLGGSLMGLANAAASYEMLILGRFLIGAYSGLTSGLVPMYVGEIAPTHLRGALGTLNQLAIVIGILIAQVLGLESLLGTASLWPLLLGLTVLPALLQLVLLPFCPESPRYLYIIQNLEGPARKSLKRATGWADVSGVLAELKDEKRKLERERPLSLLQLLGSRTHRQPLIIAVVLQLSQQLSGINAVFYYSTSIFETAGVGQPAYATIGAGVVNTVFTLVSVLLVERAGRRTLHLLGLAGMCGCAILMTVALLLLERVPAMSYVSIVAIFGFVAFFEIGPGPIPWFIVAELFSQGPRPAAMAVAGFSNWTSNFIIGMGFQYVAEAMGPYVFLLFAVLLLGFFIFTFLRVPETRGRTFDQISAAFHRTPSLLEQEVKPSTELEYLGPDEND
Method in brief: (§1)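 HEK-293T cells expressing individual GLUT4 alanine mutants were stained 48 h post-transfection with anti-GLUT4 scFv MAbs (2 μg/ml), then biotinylated secondary and streptavidin-PerCP, and read by high-throughput flow cytometry. Where used, cytochalasin B (10 uM final) was given for 30 min before and during primary antibody staining.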

[2] = molecular target: T2, hsGLUT4 R265A (human, UniProt P14672 1-509)
T2 sequence: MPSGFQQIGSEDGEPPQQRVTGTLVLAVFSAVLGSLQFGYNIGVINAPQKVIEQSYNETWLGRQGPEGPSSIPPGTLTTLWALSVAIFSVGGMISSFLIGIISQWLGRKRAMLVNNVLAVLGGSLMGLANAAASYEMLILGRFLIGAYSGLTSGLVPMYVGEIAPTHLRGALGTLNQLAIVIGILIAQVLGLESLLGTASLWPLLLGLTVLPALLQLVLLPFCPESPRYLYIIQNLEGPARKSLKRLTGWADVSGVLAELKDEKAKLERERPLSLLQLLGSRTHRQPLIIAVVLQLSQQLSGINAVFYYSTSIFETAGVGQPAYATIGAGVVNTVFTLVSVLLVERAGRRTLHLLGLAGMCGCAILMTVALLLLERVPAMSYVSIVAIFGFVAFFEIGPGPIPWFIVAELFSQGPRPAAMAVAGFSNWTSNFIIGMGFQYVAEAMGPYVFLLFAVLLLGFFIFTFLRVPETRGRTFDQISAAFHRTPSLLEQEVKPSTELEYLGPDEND
Method in brief: as §1

[3] = molecular target: T3, hsGLUT4 R416A (human, UniProt P14672 1-509)
T3 sequence: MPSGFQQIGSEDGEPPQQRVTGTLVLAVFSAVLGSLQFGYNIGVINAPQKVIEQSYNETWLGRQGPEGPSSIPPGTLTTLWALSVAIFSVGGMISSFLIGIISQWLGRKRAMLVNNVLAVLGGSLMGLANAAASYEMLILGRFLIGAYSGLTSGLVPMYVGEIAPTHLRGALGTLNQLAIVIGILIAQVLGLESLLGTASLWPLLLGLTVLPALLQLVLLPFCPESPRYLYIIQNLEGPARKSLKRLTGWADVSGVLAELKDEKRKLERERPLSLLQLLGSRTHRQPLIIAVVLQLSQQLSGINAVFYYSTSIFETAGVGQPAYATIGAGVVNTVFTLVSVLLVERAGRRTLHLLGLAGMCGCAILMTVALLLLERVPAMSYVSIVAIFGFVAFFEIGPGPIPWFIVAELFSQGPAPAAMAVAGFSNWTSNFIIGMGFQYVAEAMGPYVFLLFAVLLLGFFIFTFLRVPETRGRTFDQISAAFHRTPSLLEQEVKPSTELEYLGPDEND
Method in brief: as §1

[4] = molecular target: T4, hsGLUT4 G446A (human, UniProt P14672 1-509)
T4 sequence: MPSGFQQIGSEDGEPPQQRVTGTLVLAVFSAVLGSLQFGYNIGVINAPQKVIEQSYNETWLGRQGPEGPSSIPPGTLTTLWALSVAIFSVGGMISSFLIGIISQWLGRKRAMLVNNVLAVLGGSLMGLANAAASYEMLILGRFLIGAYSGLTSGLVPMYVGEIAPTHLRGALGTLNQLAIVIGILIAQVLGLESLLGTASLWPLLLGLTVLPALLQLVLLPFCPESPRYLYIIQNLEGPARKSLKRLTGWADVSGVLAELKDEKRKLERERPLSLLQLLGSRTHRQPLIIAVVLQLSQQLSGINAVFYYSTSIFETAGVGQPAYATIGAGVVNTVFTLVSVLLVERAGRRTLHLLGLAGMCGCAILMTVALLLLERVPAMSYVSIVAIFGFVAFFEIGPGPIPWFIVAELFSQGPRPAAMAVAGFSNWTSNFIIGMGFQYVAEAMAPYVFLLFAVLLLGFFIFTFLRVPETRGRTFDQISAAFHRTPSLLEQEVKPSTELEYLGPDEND
Method in brief: as §1

B1: AB102 (Fc fusion)
scFv: ALTQPSSVSANLGGTVKITCSGGGSYGYGWYQQKSPGSAPVTVIYSNDQRPSDIPSRFSGSKSGSTATLTITGVRAEDEAIYYCGSTDSDYVGIFGAGTTLTVLGQSSRSSGGGGSSGGGGSAVTLDESGGGLQTPGGTLSLVCKASGFDFSSYATIWVRQAPGKGLEWVAGISGTGTGSSTGYAPAVKGRATISRDNGQSTVRLQLNNLRAEDTGSYFCAKSTGYGDSWIYPDSIDAWGHGTEVIVSS
notes: also called MAb AB102; not shown: Fc fragment of human IgG1, cloned in frame with the scFv
Question: B1 was tested. Which “% of binding to wild type GLUT4” value [1] did it give?
Answer: 15%

Question: What about the “% of binding to wild type GLUT4” value [2] of the same binder?
Answer: -5%

Question: And the “% of binding to wild type GLUT4” value [3]?
Answer: 70%

Question: What about the “% of binding to wild type GLUT4” value [4] of the same binder?
Answer: 43%
